Test results: patent US20090060916A1 (published 2009)
Values joined by “and” are separate entries in the source; they are usually repeats but may differ in a detail not shown here. Equal values may be shown once. Each block holds one binder with its values, some of them ahead of it.

Columns and labels:
human IL-4 [1] = molecular target: T1, human IL-4 (human, UniProt P05112 25-153, biotinylated in the receptor binding assay and on the Biacore chip); test: DOM9 RBA (IL-4 RBA)
T1 construct: also called interleukin-4; biotinylated IL-4
T1 sequence (looked up): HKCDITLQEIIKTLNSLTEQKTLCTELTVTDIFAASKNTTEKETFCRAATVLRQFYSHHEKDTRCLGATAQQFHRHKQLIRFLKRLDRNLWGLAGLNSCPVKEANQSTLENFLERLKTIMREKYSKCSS
From the text: (§1) The wells were washed three times with 0.1% (v/v) Tween 20 in PBS, followed by three washes with PBS, before blocking with 2% (w/v) BSA in PBS. […] The reaction was stopped by the addition of HCl and the absorbance read at 450 nm.

human IL-13 [2] = molecular target: T2, human IL-13 (human, UniProt P35225 35-146, biotinylated on the Biacore chip); test: IL-13 Biacore
T2 construct: also called hIL-13; recombinant human IL-13
T2 sequence (P35225 35-146 limits assumed): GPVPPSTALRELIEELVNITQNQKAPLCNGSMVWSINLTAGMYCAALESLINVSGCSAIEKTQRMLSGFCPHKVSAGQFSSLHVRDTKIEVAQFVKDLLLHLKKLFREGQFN

human IL-13 [3] = molecular target: T2, human IL-13; test: IL-13 sandwich ELISA, competition with coating antibody
Description: A MAXISORP™ plate (high protein binding ELISA plate, Nunc, Denmark) was coated overnight with 2.5 μg/ml coating antibody (Module Set, Bender MedSystems, Vienna, Austria), then washed once with 0.05% (v/v) Tween 20 in PBS before blocking with 0.5% (w/v) BSA 0.05% (v/v) Tween 20 in PBS. […] The plate was then incubated with TMB substrate (KPL, Gaithersburg, USA), and the reaction was stopped by the addition of HCl and the absorbance read at 450 nm.

human IL-13 [4] = molecular target: T2, human IL-13; test: assay not named ('Potency IC50')
human IL-13 [5] = molecular target: T2, human IL-13; test: Biacore SPR, IL-13 surface, before and after DOM10-53-386
Description: Analytes were passed over the antigen-coated flow-cell, with in-line referencing against a blank flow-cell, at a flow rate of 30 μl/min in HBS-EP running buffer (Biacore).

human IL-4 [6] = molecular target: T1, human IL-4; test: IL-4 RBA: ELISA, IL-4R/Fc coated, biotinylated IL-4
From the text: as §1

B1: DOM9-112-210-ASTKGPS-DOM10-215 (bispecific antibody)
chain: EVQLLESGGGLVQPGGSLRLSCAASGFTFRNFGMGWVRQAPGKGLEWVSWIISSGTETYYADSVKGRFTISRDNSKNTLYLQMNSLRAEDTAVYYCAKSLGRFDYWGQGTLVTVSSASTKGPSDIQMTQSPSSLSASVGDRVTITCRASQNIFADLNWYQQKPGKAPKLLIYMGSRLQSGVPSRFSGSGSGTDFTLTISSLQPEDFATYYCQQDYKFPLTFGQGTKVEIKR
notes: in-line fusion, from pDOM5
IC50 (human IL-4 [1]): 14.2 nM
binding result (human IL-13 [2]): binds

B4: DOM10-224-TVAAPS-DOM9-155-78 (bispecific antibody)
chain: DIQMTQSPSSLSASVGDRVTITCRASPNIAVDLAWYQQKPGKAPKLLIRGVSRLQSGVPSRFSGSGSGTDFTLTISSLQPEDFATYYCRQGAMGSYTFGQGTKVEIKRTVAAPSDIQMTQSPSSLSASVGDRVTITCRASRHIGDWLHWYQQKPGKAPKLLIAWASTLDSGVPSRFSGSGSGTDFTLTISSLQPEDFATYYCLQEGWGPPTFGQGTKVEIKR
notes: in-line fusion, from pDOM5
IC50 (human IL-4 [1]): 12.5 nM
binding result (human IL-13 [2]): binds

B5: DOM10-53-396 (other)
VH: GVQLLESGGGLVQPGGSLRLSCAASGFIFAWYDMGWARQAPGKGLEWVSSIGWHGNVTYYADSVKGRFTISRDNSKNTLYLQMNSLRAEDTAVYYCATAEDEPGYDYWGQGTLVTVSS
notes: VH dAb
IC50 (human IL-13 [3]): 0.055 nM and 0.03 nM

B6: DOM10-53-475 (other)
VH: GVQLLESGGGLVQPGGSLRLSCAASGFTFAWYDMGWVRQAPGKGLEWVSSIDWHGKITYYADSVKGRFTISRDNSKNTLYLQMNSLRAEDTAVYYCATAEDEPGYDYWGQGTLVTVSS
notes: VH dAb
IC50 (human IL-13 [4]): 0.046 nM

B8: DOM10-53-434 (other)
VH: GVQLLESGGGLVQPGGSLRLSCAASGFIFAWYDMGWVRQAPGKGLEWVSSIDWKGGKTYYADSVKGRFTISRDNSKNTLYLQMNSLRAEDTAVYYCATAEDEPGYDYWGQGTLVTVSS
notes: VH dAb
IC50 (human IL-13 [4]): 0.29 nM

B9: DOM10-53-531 (other)
VH: GVQLLESGGGLVQPGGSLRLSCAASGFTFAWYDMGWVRQAPGKGLEWVSSIDWKGGKTYYADSVKGRFTISRDNSKNTLYLQMNSLRAEDTAVYYCATAEDEPGYDYWGQGTLVTVSS
notes: VH dAb
IC50 (human IL-13 [4]): 0.34 nM

B10: DOM10-53-472 (other)
VH: GVQLLESGGGLVQPGGSLRLSCAASGFIFAWYDMKWVRQAPGKGLEWVSSIDWHGKITYYADSVKGRFTISRDNSKNTLYLQMNSLRAEDTAVYYCATAEDEPGYDYWGQGTLVTVSS
notes: VH dAb
IC50 (human IL-13 [4]): 0.054 nM

B12: DOM9-112-210-DOM10-53-546 (bispecific antibody)
chain: EVQLLESGGGLVQPGGSLRLSCAASGFTFRNFGMGWVRQAPGKGLEWVSWIISSGTETYYADSVKGRFTISRDNSKNTLYLQMNSLRAEDTAVYYCAKSLGRFDYWGQGTLVTVSSASTKGPSGVQLLESGGGLVQPGGSLRLSCAASGFVFPWYDMGWVRQAPGKGLEWVSSIDWKGGKTYYADSVKGRFTISRDNSKNTLYLQMNSLRAEDTAVYYCATAEDEPGYDYWGQGTLVTVSS
notes: in-line fusion, from pDOM5
IC50 (human IL-4 [6]): 4.3 nM and 6 nM
EC50 (human IL-13 [3]): 1 nM

B14: DOM10-208 (other)
VL: DIQMTQSPSSLSASVGDRVTITCRASSPITDGLAWYQQKPGKAPKLLIDTGSRLQSGVPSRFSGSGSGTDFTLTISSLQPEDFATYYCRQGAMGSYTFGQGTKVEIKR
notes: Vk dAb
binding result (human IL-13 [5]): binds

B15: DOM10-224 (other)
VL: DIQMTQSPSSLSASVGDRVTITCRASPNIAVDLAWYQQKPGKAPKLLIRGVSRLQSGVPSRFSGSGSGTDFTLTISSLQPEDFATYYCRQGAMGSYTFGQGTKVEIKR
notes: Vk dAb
binding result (human IL-13 [5]): binds

B16: DOM10-213 (other)
VL: DIQMTQSPSSLSASVGDRVTITCRASQAIPWGLNWYQQKPGKAPKLLIYDVSSLQSGVPSRFSGSGSGTDFTLTISSLQPEDFATYYCQQDIHIPMTFGQGTKVEIKR
notes: Vk dAb
binding result (human IL-13 [5]): binds

B19: DOM10-212 (other)
VL: DIQMTQSPSSLSASVGDRVTITCRASSVILNELHWYQQKPGKAPKLLISAVSRLQSGVPSRFSGSGSGTDFTLTISSLQPEDFATYYCLQTFWGPFTFGQGTKVEIKR
notes: Vk dAb
binding result (human IL-13 [5]): binds

B20: DOM10-270 (other)
VL: DIQMTQSPSSLSASVGDRVTITCRASSVILNELHWYQQKPGKAPKLLISAVSRLQSGVPSRFSGSGSGTDFTLTISSLQPEDFATYYCLQTFWGPYTFGQGTKVEIKR
notes: Vk dAb
binding result (human IL-13 [5]): binds

Second part, the binder after the results:

IC50 (human IL-4 [1]): 10.9 nM
binding result (human IL-13 [2]): binds
B2: DOM9-112-210-ASTKGPS-DOM10-275 (bispecific antibody)
chain: EVQLLESGGGLVQPGGSLRLSCAASGFTFRNFGMGWVRQAPGKGLEWVSWIISSGTETYYADSVKGRFTISRDNSKNTLYLQMNSLRAEDTAVYYCAKSLGRFDYWGQGTLVTVSSASTKGPSEVQLLESGGGLVQPGGSLRLSCAASGFTFDREEMDWVRQAPGKGLEWVSTISPSGRKTYYADSVKGRFTISRDNSKNTLYLQMNSLRAEDTAVYYCAKHGTGFDYWGQGTLVTVSS
notes: in-line fusion, from pDOM5

IC50 (human IL-4 [1]): 10.2 nM
binding result (human IL-13 [2]): binds
B3: DOM9-112-210-ASTKGPS-DOM10-276 (bispecific antibody)
chain: EVQLLESGGGLVQPGGSLRLSCAASGFTFRNFGMGWVRQAPGKGLEWVSWIISSGTETYYADSVKGRFTISRDNSKNTLYLQMNSLRAEDTAVYYCAKSLGRFDYWGQGTLVTVSSASTKGPSEVQLLESGGGLVQPGGSLRLSCAASGFTFRDYEMDWVRQAPGKGLEWVSSIGPSGSETYYADSVKGRFTISRDNSKNTLYLQMNSLRAEDTAVYYCAKAYTSFDYWGQGTLVTVSS
notes: in-line fusion, from pDOM5

IC50 (human IL-13 [4]): 20 nM
B7: DOM10-53-612 (other)
VH: GVQLLESGGGLVQPGGSLRLSCAASGFAFAAYDMGWVRQAPGKGLEWVSSIDWKGMETYYADSVKGRFTISRDNSKNTLYLQMNSLRAEDTAVYYCATAEDEPGYDYWGQGTLVTVSS
notes: VH dAb

binding result (human IL-13 [5]): binds
B11: DOM10-236 (other)
VH: EVQLLESGGGLVQPGGSLRLSCAASGFTFPKYDMMWVRQAPGKGLEWVSSIDHLGVNTYYADSVKGRFTISRDNSKNTLYLQMNSLRAEDTAVYYCAKESDWPSFDYWGQGTLVTVSS
notes: VH dAb

binding result (human IL-13 [5]): binds
B13: DOM10-277 (other)
VH: EVQLLESGGGLVQPGGSLRLSCAASGFTFSSYEMDWVRQAPGKGLEWVSTISADGVTTYYADSVKGRFTISRDNSKNTLYLQMNSLRAEDTAVYYCAKAFDAFDYWGQGTLVTVSS
notes: VH dAb

IC50 (human IL-4 [1]): 5.02 nM
binding result (human IL-13 [2]): binds
B17: DOM10-276-ASTKGPS-DOM9-155-78 (bispecific antibody)
chain: EVQLLESGGGLVQPGGSLRLSCAASGFTFRDYEMDWVRQAPGKGLEWVSSIGPSGSETYYADSVKGRFTISRDNSKNTLYLQMNSLRAEDTAVYYCAKAYTSFDYWGQGTLVTVSSASTKGPSDIQMTQSPSSLSASVGDRVTITCRASRHIGDWLHWYQQKPGKAPKLLIAWASTLDSGVPSRFSGSGSGTDFTLTISSLQPEDFATYYCLQEGWGPPTFGQGTKVEIKR
notes: in-line fusion, from pDOM5

binding result (human IL-13 [5]): binds
B18: DOM10-215 (other)
VL: DIQMTQSPSSLSASVGDRVTITCRASQNIFADLNWYQQKPGKAPKLLIYMGSRLQSGVPSRFSGSGSGTDFTLTISSLQPEDFATYYCQQDYKFPLTFGQGTKVEIKR
notes: Vk dAb
